Source: doi:10.1101/2024.06.03.596960 (bioRxiv, 2024)
“And” between values parts separate entries of the source, which are not always exact repeats. Equal entries are not always repeated. Values belong to the molecule of their own block, whether it stands above or below them.

Tests used:
[1] = molecular target: BACH1 BTB domain (residues 7-128), wild type, tag-free (UniProt O14867); experiment: NMR titration
His10-TEV-BACH1^BTB = His10-TEV-BACH1^BTB (UniProt O14867); experiment: AlphaScreen or HTRF
BACH1^BTB Y11F = BACH1^BTB Y11F (UniProt O14867); experiment: SEC-MALS
BACH1^BTB S13D = BACH1^BTB S13D (UniProt O14867); experiment: SEC-MALS
[2] = molecular target: BACH1^BTB Y11H mutant (cancer-associated, TCGA) (UniProt O14867); experiment: SEC-MALS
BTFA-modified BACH1^BTB = BTFA-modified BACH1^BTB (UniProt O14867)
BACH1^BTB E12R = BACH1^BTB E12R (UniProt O14867); experiment: SEC-MALS
BACH1^BTB S13A = BACH1^BTB S13A (UniProt O14867); experiment: SEC-MALS
BACH1^BTB F9A = BACH1^BTB F9A (UniProt O14867); experiment: SEC-MALS
[3] = molecular target: BACH1 BTB domain (residues 7-128), wild type, tag-free (UniProt O14867); experiment: SEC-MALS
[4] = molecular target: biotinylated ^AviSKP1-FBXO22(12-403) (UniProt P63208); experiment: SPR
biotinylated ^AviSKP1-FBXO22(12-403), sequence (P63208 2-163, chain 1 of 2): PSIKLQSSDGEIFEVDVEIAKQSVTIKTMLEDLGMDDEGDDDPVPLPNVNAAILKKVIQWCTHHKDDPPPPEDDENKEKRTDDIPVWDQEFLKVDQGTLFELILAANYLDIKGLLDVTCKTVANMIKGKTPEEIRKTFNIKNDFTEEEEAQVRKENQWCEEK
biotinylated ^AviSKP1-FBXO22(12-403), sequence (Q8NEZ5 12-403, chain 2 of 2, further chain): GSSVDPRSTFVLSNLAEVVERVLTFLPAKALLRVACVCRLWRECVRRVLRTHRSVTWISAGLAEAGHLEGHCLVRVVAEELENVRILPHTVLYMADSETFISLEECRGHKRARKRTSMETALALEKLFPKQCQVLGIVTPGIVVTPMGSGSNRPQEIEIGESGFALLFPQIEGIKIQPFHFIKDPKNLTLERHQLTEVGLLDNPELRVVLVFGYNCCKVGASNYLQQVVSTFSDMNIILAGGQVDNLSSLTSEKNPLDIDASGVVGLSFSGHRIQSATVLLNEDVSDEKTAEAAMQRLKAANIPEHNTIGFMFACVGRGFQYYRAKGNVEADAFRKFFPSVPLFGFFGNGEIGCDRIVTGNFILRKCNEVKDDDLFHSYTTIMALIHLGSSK

[5] = molecular target: biotinylated ^AviSKP1-FBXO22(12-403) (UniProt P63208); experiment: BLI
[6] = molecular target: BACH1^BTB A53V mutant (cancer-associated, TCGA) (UniProt O14867); experiment: SEC-MALS
BACH1^BTB Y11A = BACH1^BTB Y11A (UniProt O14867); experiment: SEC-MALS
mass photometry = molecular target: the molecule itself; experiment: mass photometry
[7] = molecular target: SKP1-FBXO22 heterodimer, wild type, tag-free (UniProt P63208); experiment: mass photometry
SKP1-FBXO22 heterodimer, wild type, tag-free (UniProt P63208), sequence (P63208 2-163, chain 1 of 2): as the sequence (P63208 2-163, chain 1 of 2) above
SKP1-FBXO22 heterodimer, wild type, tag-free (UniProt P63208), sequence (Q8NEZ5 12-403, chain 2 of 2, further chain): as the sequence (Q8NEZ5 12-403, chain 2 of 2, further chain) above

Molecule: SKP1-FBXO22 heterodimer, wild type, tag-free (from UniProt P63208 2-163; Q8NEZ5 12-403) (complex)
stoichiometry N (equivalent SKP1-FBXO22) [1]: 1
IC50 (His10-TEV-BACH1^BTB): 495 nM

Molecule: BACH1^BTB Y11F (from UniProt O14867 7-128) (domain or fragment)
stoichiometry N (BACH1^BTB Y11F): 2

Molecule: BACH1^BTB S13D (from UniProt O14867 7-128) (domain or fragment)
stoichiometry N (BACH1^BTB S13D): 2

stoichiometry N [2]: 2
Molecule: BACH1^BTB Y11H mutant (cancer-associated, TCGA) (from UniProt O14867 7-128) (domain or fragment)

stoichiometry N (BTFA-modified BACH1^BTB): 2
Molecule: BTFA-modified BACH1^BTB (from UniProt O14867 7-128) (domain or fragment)

Molecule: BACH1^BTB E12R (from UniProt O14867 7-128) (domain or fragment)
stoichiometry N (BACH1^BTB E12R): 2

Molecule: BACH1^BTB S13A (from UniProt O14867 7-128) (domain or fragment)
stoichiometry N (BACH1^BTB S13A): 2

Molecule: BACH1^BTB F9A (from UniProt O14867 7-128) (domain or fragment)
stoichiometry N (BACH1^BTB F9A): 2

Molecule: BACH1 BTB domain (residues 7-128), wild type, tag-free (from UniProt O14867 7-128) (domain or fragment)
stoichiometry N [3]: 2
Kd [4]: 57.7 nM
Kd [5]: 124 nM and 83.9 nM

stoichiometry N [6]: 2
Molecule: BACH1^BTB A53V mutant (cancer-associated, TCGA) (from UniProt O14867 7-128) (domain or fragment)

Molecule: BACH1^BTB Y11A (from UniProt O14867 7-128) (domain or fragment)
stoichiometry N (BACH1^BTB Y11A): 2

Kd [5]: 44.3 nM and 28.6 nM
koff [5]: 0.0021 s⁻¹
kon [5]: 470000 M⁻¹ s⁻¹
stoichiometry N (BACH1^FL per SKP1-FBXO22 heterodimer) [7]: 2
B1: full-length BACH1 (residues 2-736), tag-free (natural protein)
chain: SLSENSVFAYESSVHSTNVLLSLNDQRKKDVLCDVTIFVEGQRFRAHRSVLAACSSYFHSRIVGQADGELNITLPEEVTVKGFEPLIQFAYTAKLILSKENVDEVCKCVEFLSVHNIEESCFQFLKFKFLDSTADQQECPRKKCFSSHCQKTDLKLSLLDQRDLETDEVEEFLENKNVQTPQCKLRRYQGNAKASPPLQDSASQTYESMCLEKDAALALPSLCPKYRKFQKAFGTDRVRTGESSVKDIHASVQPNERSENECLGGVPECRDLQVMLKCDESKLAMEPEETKKDPASQCPTEKSEVTPFPHNSSIDPHGLYSLSLLHTYDQYGDLNFAGMQNTTVLTEKPLSGTDVQEKTFGESQDLPLKSDLGTREDSSVASSDRSSVEREVAEHLAKGFWSDICSTDTPCQMQLSPAVAKDGSEQISQKRSECPWLGIRISESPEPGQRTFTTLSSVNCPFISTLSTEGCSSNLEIGNDDYVSEPQQEPCPYACVISLGDDSETDTEGDSESCSAREQECEVKLPFNAQRIISLSRNDFQSLLKMHKLTPEQLDCIHDIRRRSKNRIAAQRCRKRKLDCIQNLESEIEKLQSEKESLLKERDHILSTLGETKQNLTGLCQKVCKEAALSQEQIQILAKYSAADCPLSFLISEKDKSTPDGELALPSIFSLSDRPPAVLPPCARGNSEPGYARGQESQQMSTATSEQAGPAEQCRQSGGISDFCQQMTDKCTTDE
stoichiometry N (mass photometry): 2
